The source of these data is patent publication US20150284436A1 (published 2015).

B4: human TRX (thioredoxin), wild-type, tag-free (enzyme)
chain: MVKQIESKTAFQEALDAAGDKLVVVDFSATWCGPCKMIKPFFHSLSEKYSNVIFLEVDVDDCQDVASECEVKCMPTFQFFKKGQKVGEFSGANKEKLEATINELV
notes: Expressed tag-free under the T7 promoter together with TXNIP constructs in E. coli; also called native TRX; endogenous TRX
B5: N-TXNIP (N-terminal domain of TXNIP, residues 3-156) (other)
chain: MFKKIKSFEVVFNDPEKVYGSGERVAGRVIVEVCEVTRVKAVRILACGVAKVLWMQGSQQCKQTSEYLRYEDTLLLEDQPTGENEMVIMRPGNKYEYKFGFELPQGPLGTSFKGKYGCVDYWVKAFLDRPSQPTQETKKNFEVVDLVDVNTPDL
notes: The NMR sample was 15N-labeled and its hexahistidine-tag was removed by rTEV; In the Ni-NTA co-purification it carried the N-terminal hexahistidine-tag; also called N-terminal TXNIP; ^15N-labeled N-TXNIP

For experiment [1], the target named is T1, TRX(C35A), tag-free (human, UniProt P10599 1-105).
T1 construct: Human TRX with alanine for cysteine at position 35; Co-expressed tag-free with T-TXNIP mutants or N-TXNIP; also called modified TRX protein
T1 chain: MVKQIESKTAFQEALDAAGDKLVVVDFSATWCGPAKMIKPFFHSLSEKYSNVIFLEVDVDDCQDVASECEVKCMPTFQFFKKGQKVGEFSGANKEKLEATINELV
As to the kind of experiment: co-crystal structure, X-ray, 2.7 Å.

For a further experiment, the target named is T2, HA-tagged TXNIP (human, UniProt Q9H3M7 1-391).
T2 construct: Expressed in HEK 293T cells
T2 sequence: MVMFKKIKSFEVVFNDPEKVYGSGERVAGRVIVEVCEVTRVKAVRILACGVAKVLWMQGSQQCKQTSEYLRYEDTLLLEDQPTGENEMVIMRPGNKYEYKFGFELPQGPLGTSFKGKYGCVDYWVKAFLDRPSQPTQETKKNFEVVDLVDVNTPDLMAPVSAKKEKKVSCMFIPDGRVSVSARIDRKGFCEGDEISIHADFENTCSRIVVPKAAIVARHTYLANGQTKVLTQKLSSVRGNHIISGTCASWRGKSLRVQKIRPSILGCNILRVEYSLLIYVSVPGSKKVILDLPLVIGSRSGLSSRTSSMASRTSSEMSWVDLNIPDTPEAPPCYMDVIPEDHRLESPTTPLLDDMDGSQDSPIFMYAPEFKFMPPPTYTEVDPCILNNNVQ
As to the kind of experiment: anti-FLAG agarose immunoprecipitation from HEK 293T lysates (50 mM iodoacetamide), Western blot. The protocol:
To test the in vivo interprotomer interaction between TXNIP molecules, HEK 293T cells were transfected with plasmids expressing HA-tagged-TXNIP and FLAG-tagged T-TXNIP. 24 hours later, the cells were harvested and lysed in the 50 mM iodoacetamide-containing buffer [0.5% Triton X-100, 150 mM NaCl, 10% glycerol, 1 mM NaF, 1 mM AEBSF, 2 μg/mL leupeptin, 5 μg/mL aprotinin and 20 mM HEPES (pH 7.2)]. After centrifugation at 16,000 rpm for 20 minutes, the supernatant was incubated with anti-FLAG M2 agarose (Sigma) at 4° C. for 12 hours. The immobilized proteins were collected by centrifugation and washed three times with the lysis buffer. The bound proteins were subjected to SDS-PAGE under reduced and non-reduced conditions. […] 24 hours later, the cells were harvested and lysed in the lysis buffer. After centrifugation at 16,000 g for 20 minutes, the supernatants were incubated at 4° C. for 12 hours with monoclonal anti-FLAG M2 agarose beads (Sigma) for immunoprecipitation, or with glutathione-conjugated sepharose beads (GE Healthcare) for pull-down assay. The immobilized proteins were collected by centrifugation and washed three times with lysis buffer. Bound proteins or WCLs were eluted by boiling in SDS sample buffer. […]

For experiment [2], the target named is T1, TRX(C35A), tag-free. Briefly: size-exclusion chromatography. The method, then:
A Superdex™ 200 10/300 GL gel filtration column (GE Healthcare) installed on an Acta purifier FPLC system (GE Healthcare) was equilibrated with 50 mM Tris-HCl (pH 8.0), 500 mM NaCl, and 10% glycerol at a flow rate of 0.4 ml/min at room temperature. Purified TRX-T-TXNIP and its mutants were injected onto the column. Ovalbumin was used as a molecular weight standard.
The structures of COM1 and COM2 are essentially identical, each contains two heterodimeric complexes of TRX and T-TXNIP in an asymmetric unit, with a large interface between the two T-TXNIP molecules (FIGS. 5A and B). […] Thus, the interfaces between the T-TXNIP molecules in the crystal structures merely constitute large crystal contacts.
On the technique in general: Size exclusion chromatography separates by hydrodynamic size, large species first.

Experiment [3] concerns the target B4. Briefly: GST pull-down from transfected HEK 293T lysates, immunoblot.
In experiment [4] the target is T3, T-TXNIP (TXNIP residues 3-317) (human, UniProt Q9H3M7 3-317).
T3 construct: In E. coli it was expressed with an N-terminal hexahistidine-tag that was removed by rTEV protease; also called native T-TXNIP; T-TXNIP(3-317)
T3 sequence: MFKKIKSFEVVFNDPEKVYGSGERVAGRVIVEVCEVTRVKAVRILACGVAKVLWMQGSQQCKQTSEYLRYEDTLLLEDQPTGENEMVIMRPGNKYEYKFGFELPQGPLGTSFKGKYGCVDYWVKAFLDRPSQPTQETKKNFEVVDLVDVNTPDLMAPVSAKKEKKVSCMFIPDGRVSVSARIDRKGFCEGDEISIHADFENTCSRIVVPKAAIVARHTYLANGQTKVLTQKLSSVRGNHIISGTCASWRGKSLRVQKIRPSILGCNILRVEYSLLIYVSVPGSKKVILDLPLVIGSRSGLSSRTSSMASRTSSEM
The experiment is described as above.

For experiment [5], the target named is T4, TRX, wild-type, with C-terminal hexahistidine-tag (NMR sample) (human, UniProt P10599 1-105).
T4 construct: also called unlabeled, reduced TRX; wild-type TRX; not shown: C-terminal hexahistidine-tag from pET21 vector
T4 sequence: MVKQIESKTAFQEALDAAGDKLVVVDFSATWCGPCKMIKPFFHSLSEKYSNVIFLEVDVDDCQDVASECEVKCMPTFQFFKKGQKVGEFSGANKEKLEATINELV
As to the kind of experiment: 1H-15N HSQC NMR titration of 15N-labeled N-TXNIP. The method, then:
(§1) NMR interaction experiments were carried out by recording ¹H-¹⁵N NMR HSQC spectra of ¹⁵N-labeled N-TXNIP upon addition of unlabeled TRX or its mutant, which was reduced with 5 mM DTT and dialyzed against 50 mM potassium phosphate (pH 6.6) prior to the interaction study to remove excess DTT.
(§2) The ¹H-¹⁵N HSQC spectra of all proteins were measured on a Bruker 900 MHz NMR spectrometer at the Korea Basic Science Institute (Ochang, Korea). The NMR measurements were performed using 0.3 mM ¹⁵N-labeled protein in 50 mM potassium phosphate (pH 6.6) containing 10% D₂O at 25° C. All NMR spectra were processed with Topspin 2.1 and analyzed with the program SPARKY 3.1.
To evaluate the involvement of N-TXNIP in the interaction of TXNIP with TRX, an NMR-titration experiment was performed by recording a series of ¹H-¹⁵N heteronuclear single quantum coherence (HSQC) spectra of ¹⁵N-labeled N-TXNIP after addition of unlabeled, reduced TRX.

Experiment [6] deals with T4, TRX, wild-type, with C-terminal …. Briefly: 1H-15N HSQC NMR. The protocol: as §1, §2
(§3) Further, TRX muteins were added and ¹H-¹⁵N HSQC spectra of ¹⁵N-labeled N-TXNIP were monitored to examine interaction between N-TXNIP and TRX. […] In contrast, C62A, C69A, and C73A mutants caused a chemical shift similar to the wild-type TRX (FIG. 12).

The target of experiment [7] is B5. As to the kind of experiment: 1H-15N HSQC NMR of 15N-labeled N-TXNIP. The protocol:
as §1, §2, §3

B1: T-TXNIP(C170S/C205S/C267S) (other)
chain: MFKKIKSFEVVFNDPEKVYGSGERVAGRVIVEVCEVTRVKAVRILACGVAKVLWMQGSQQCKQTSEYLRYEDTLLLEDQPTGENEMVIMRPGNKYEYKFGFELPQGPLGTSFKGKYGCVDYWVKAFLDRPSQPTQETKKNFEVVDLVDVNTPDLMAPVSAKKEKKVSSMFIPDGRVSVSARIDRKGFCEGDEISIHADFENTSSRIVVPKAAIVARHTYLANGQTKVLTQKLSSVRGNHIISGTCASWRGKSLRVQKIRPSILGSNILRVEYSLLIYVSVPGSKKVILDLPLVIGSRSGLSSRTSSMASRTSSEM
notes: 1; The N-terminal hexahistidine-tag was removed by rTEV protease; also called modified TXNIP protein of COM2
On to B1, for which the binding result with TRX(C35A), tag-free [1] is reported as “binds”.

B2: FLAG-tagged T-TXNIP (other)
chain: MFKKIKSFEVVFNDPEKVYGSGERVAGRVIVEVCEVTRVKAVRILACGVAKVLWMQGSQQCKQTSEYLRYEDTLLLEDQPTGENEMVIMRPGNKYEYKFGFELPQGPLGTSFKGKYGCVDYWVKAFLDRPSQPTQETKKNFEVVDLVDVNTPDLMAPVSAKKEKKVSCMFIPDGRVSVSARIDRKGFCEGDEISIHADFENTCSRIVVPKAAIVARHTYLANGQTKVLTQKLSSVRGNHIISGTCASWRGKSLRVQKIRPSILGCNILRVEYSLLIYVSVPGSKKVILDLPLVIGSRSGLSSRTSSMASRTSSEM
notes: Expressed in HEK 293T cells
Take B2: the binding result with HA-tagged TXNIP is given as “binds”.

B3: T-TXNIP(C120S/C170S/C205S/C267S) (other)
chain: MFKKIKSFEVVFNDPEKVYGSGERVAGRVIVEVCEVTRVKAVRILACGVAKVLWMQGSQQCKQTSEYLRYEDTLLLEDQPTGENEMVIMRPGNKYEYKFGFELPQGPLGTSFKGKYGSVDYWVKAFLDRPSQPTQETKKNFEVVDLVDVNTPDLMAPVSAKKEKKVSSMFIPDGRVSVSARIDRKGFCEGDEISIHADFENTSSRIVVPKAAIVARHTYLANGQTKVLTQKLSSVRGNHIISGTCASWRGKSLRVQKIRPSILGSNILRVEYSLLIYVSVPGSKKVILDLPLVIGSRSGLSSRTSSMASRTSSEM
notes: 1; The N-terminal hexahistidine-tag was removed by rTEV protease; also called T-TXNIP(C120,170,205,267S); modified TXNIP protein of COM1
As for B3, the binding result is on record as “binds” in the experiment with TRX(C35A), tag-free [2] and “binds” in experiment [3]. For the molecule B4, the binding result in experiment [4] is reported as “binds”. As for B5, in experiment [5], the binding result is “binds”.

B6: N-TXNIP C120S mutant (^15N-labeled) (other)
chain: MFKKIKSFEVVFNDPEKVYGSGERVAGRVIVEVCEVTRVKAVRILACGVAKVLWMQGSQQCKQTSEYLRYEDTLLLEDQPTGENEMVIMRPGNKYEYKFGFELPQGPLGTSFKGKYGSVDYWVKAFLDRPSQPTQETKKNFEVVDLVDVNTPDL
B6: the binding result in experiment [6] was “no binding”.

B7: N-TXNIP C63S mutant (^15N-labeled) (other)
chain: MFKKIKSFEVVFNDPEKVYGSGERVAGRVIVEVCEVTRVKAVRILACGVAKVLWMQGSQQSKQTSEYLRYEDTLLLEDQPTGENEMVIMRPGNKYEYKFGFELPQGPLGTSFKGKYGCVDYWVKAFLDRPSQPTQETKKNFEVVDLVDVNTPDL
With B7, the binding result in experiment [6] is on record as “no binding”.

B8: TRX C73A mutant (NMR sample) (enzyme)
chain: MVKQIESKTAFQEALDAAGDKLVVVDFSATWCGPCKMIKPFFHSLSEKYSNVIFLEVDVDDCQDVASECEVKAMPTFQFFKKGQKVGEFSGANKEKLEATINELV
notes: not shown: C-terminal hexahistidine-tag from pET21 vector
B8: in experiment [7], the binding result is given as “binds”.

B9: TRX C62A mutant (NMR sample) (enzyme)
chain: MVKQIESKTAFQEALDAAGDKLVVVDFSATWCGPCKMIKPFFHSLSEKYSNVIFLEVDVDDAQDVASECEVKCMPTFQFFKKGQKVGEFSGANKEKLEATINELV
notes: as for B8
In the case of B9, the binding result in experiment [7] is given as “binds”.

B10: TRX C69A mutant (NMR sample) (enzyme)
chain: MVKQIESKTAFQEALDAAGDKLVVVDFSATWCGPCKMIKPFFHSLSEKYSNVIFLEVDVDDCQDVASEAEVKCMPTFQFFKKGQKVGEFSGANKEKLEATINELV
notes: as for B8
As to B10, in experiment [7], the binding result is “binds”.
